We go through six molecules from US20210317201A1 (Boehringer Ingelheim, published 2021).

The target in assay [1] is T1, recombinant human IL-23 (human, UniProt P29460 23-328).
T1 sequence 1: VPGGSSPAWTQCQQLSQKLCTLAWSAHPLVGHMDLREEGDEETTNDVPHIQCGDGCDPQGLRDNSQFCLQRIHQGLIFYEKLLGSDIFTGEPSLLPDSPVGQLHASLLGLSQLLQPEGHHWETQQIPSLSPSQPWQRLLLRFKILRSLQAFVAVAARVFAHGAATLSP
T1 sequence 2: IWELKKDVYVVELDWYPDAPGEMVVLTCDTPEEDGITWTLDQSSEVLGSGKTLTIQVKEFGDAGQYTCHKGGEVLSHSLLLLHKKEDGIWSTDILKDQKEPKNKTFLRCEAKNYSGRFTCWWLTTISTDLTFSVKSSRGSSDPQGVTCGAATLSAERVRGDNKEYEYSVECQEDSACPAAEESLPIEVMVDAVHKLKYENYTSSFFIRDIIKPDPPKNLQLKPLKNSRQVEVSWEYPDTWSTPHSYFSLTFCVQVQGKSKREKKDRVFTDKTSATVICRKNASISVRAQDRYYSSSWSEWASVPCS
Kind of assay: cell-based or functional assay.

For assay [2], the target named is T2, natural human IL-23 from activated THP-1 cells (human, UniProt P29460 23-328).
T2 sequence 1: T1 sequence 1
T2 sequence 2: T1 sequence 2
Kind of assay: cell-based or functional assay.

The target of the next assay is T3, human IL-12 (human, UniProt P29459 23-219; P29460 23-328).
T3 sequence (looked up) 1: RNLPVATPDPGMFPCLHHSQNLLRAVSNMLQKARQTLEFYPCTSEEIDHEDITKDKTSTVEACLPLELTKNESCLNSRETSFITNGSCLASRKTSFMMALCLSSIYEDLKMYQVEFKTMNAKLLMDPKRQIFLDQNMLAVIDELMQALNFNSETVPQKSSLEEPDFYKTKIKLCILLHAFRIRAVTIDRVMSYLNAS
T3 sequence (looked up) 2: T1 sequence 2
Put plainly: cell-based or functional assay.

The target of assay [3] is T1, recombinant human IL-23. Put plainly: cell-based or functional assay. This is another data set of the same source.
For another assay, the target named is T4, Human IL-23 no linker (human, UniProt P29460 23-328).
T4 construct: also called recombinant IL-23 without linker
T4 sequence 1: T1 sequence 1
T4 sequence 2: T1 sequence 2
Put plainly: SPR, ProteOn XPR36, global 1:1 fit. As for the experimental part:
B) Affinities were measured for humanized antibodies derived from mouse antibody 6B8.

A further assay deals with T5, cynomologous IL-23 (cynomolgus monkey).
T5 construct: also called cynomolgus IL-23; cynomolgus monkey IL-23
Put plainly: SPR, ProteOn XPR36, global 1:1 fit.

For assay [4], the target named is T1, recombinant human IL-23. Kind of assay: BLI, Fortebio Octet; hybridoma-derived antibody. As for the experimental part: Kinetics and binding affinities were measured using the Fortebio OCTET® (Fortebio, Menlo Park, Calif.) using material generated from hybridoma following single column purification.

Where a chain is given by its changes, count along the chain named. Names and notes keep the numbering of the source. Values joined by “and” are separate entries in the source; they are usually repeats but may differ in a detail not shown here. Identical values can stand only once. Bounds are passed on as bounds.

B1: Antibody D (antibody, human IgG1, kappa, L234A L235A, V domains shown)
VH: QVQLVQSGAEVKKPGSSVKVSCKASGFTFTDQTIHWVRQAPGQGLEWMGYIYPRDDSPKYNENFKGKVTLTADKSTSTAYMELSSLRSEDTAVYYCAIPDRSGYAWFIYWGQGTLVTVSS
VL: DIQMTQSPSSLSASVGDRVTITCKASRDVAIAVAWYQQKPGKVPKLLLFWASTRHTGVPDRFSGSGSGTDFTLTISSLQPEDLADYYCHQYSSYPFTFGQGTKLEIKR
notes: Humanized 6B8, human IgG1-KO (L234A/L235A) / kappa; also called 6B8-IgG1KO-5 with IgK-65; 6B8CVH-05 / 6B8CVK-65
B1: the “IC50, IL-23 stimulated IL-17 production from mouse splenocytes” value (“IC50, IL-23 stimulated IL-17 production” below) with recombinant human IL-23 [1] is 236 pM and 225 pM and 614 pM and 458 pM. Further, the “IC50, IL-23 stimulated IL-17 production” value in assay [2] was 133 pM and 125 pM. Further, the “Average pg/ml IFN-γ +/- Standard Deviation, human PHA-derived T cell blasts with 1 ng/ml IL-12 (no antibody: 532 +/- 51; unstimulated: 87 +/- 7)” value in the assay with human IL-12 stood at 539 pg/ml IFN-γ. In the assay with recombinant human IL-23 [3], the “IC50, IL-23 induced STAT3 phosphorylation in human DB cells (phospho-STAT3 ELISA)” value (“IC50 … (phospho-STAT3 ELISA)” for short) amounted to 158 pM. In the assay with Human IL-23 no linker, this molecule gave a Kd of 0.135 nM, a koff of 4.93e-05 s⁻¹ and an on-rate (kon) of 366000 M⁻¹ s⁻¹. In the assay with cynomologous IL-23, this molecule showed a Kd of 15.9 pM, a koff of 3.29e-05 s⁻¹ and a kon of 2.07e+06 M⁻¹ s⁻¹.

B2: Antibody B (antibody, human IgG1, kappa, L234A L235A, V domains shown)
VH: B1 VH
VL: B1 VL with L48I, F49Y, D60S, G68R, L83V, Y87F, Q100S
notes: Humanized 6B8, human IgG1-KO (L234A/L235A) / kappa; also called 6B8-IgG1KO-5 with IgK-66; 6B8CVH-05 / 6B8CVK-66
For B2, the “IC50, IL-23 stimulated IL-17 production” value in assay [2] is 9 pM and 8 pM. Moreover, the “Average pg/ml IFN-γ +/- Standard Deviation, human PHA-derived T cell blasts with 1 ng/ml IL-12 (no antibody: 532 +/- 51; unstimulated: 87 +/- 7)” value in the assay with human IL-12 stood at 537 pg/ml IFN-γ. The “IC50 … (phospho-STAT3 ELISA)” value with recombinant human IL-23 [3] was 73 pM and 84 pM. In the assay with Human IL-23 no linker, the equilibrium dissociation constant (Kd) was less than 0.001 nM, the off-rate (koff) was less than 1e-06 s⁻¹ and the kon is 517000 M⁻¹ s⁻¹. Besides, in the assay with cynomologous IL-23, the dissociation constant (Kd) is less than 1 pM, the dissociation rate constant (koff) was less than 1e-06 s⁻¹ and the kon was 2.99e+06 M⁻¹ s⁻¹.

B3: Antibody C (antibody, human IgG1, kappa, L234A L235A, V domains shown)
VH: B1 VH with F27Y, V37M, M48I, L70I
VL: B1 VL
notes: Humanized 6B8, human IgG1-KO (L234A/L235A) / kappa; also called 6B8-IgG1KO-2 with IgK-65; 6B8CVH-02 / 6B8CVK-65
Take B3: the “IC50, IL-23 stimulated IL-17 production” value in assay [2] was 16 pM and 32 pM. The “Average pg/ml IFN-γ +/- Standard Deviation, human PHA-derived T cell blasts with 1 ng/ml IL-12 (no antibody: 532 +/- 51; unstimulated: 87 +/- 7)” value with human IL-12 came to 495 pg/ml IFN-γ. For the same molecule, in the assay with recombinant human IL-23 [3], the “IC50 … (phospho-STAT3 ELISA)” value is 132 pM and 80 pM. In the assay with Human IL-23 no linker, this molecule gave a Kd of 0.0363 nM, a koff of 1.65e-05 s⁻¹ and a kon of 454000 M⁻¹ s⁻¹. Besides, in the assay with cynomologous IL-23, the affinity, expressed as Kd, was 2.9 pM; the dissociation rate constant (koff) came out at 9.36e-06 s⁻¹; the on-rate constant (kon) turned out to be 3.23e+06 M⁻¹ s⁻¹.

B4: 31H9 (antibody, V domains shown)
VH: EVQLQQSGPELVKPGASVKMSCKASGYTFTRYLMHWVKQKPGQGLEWIGYINPYNDGTNYNEKFKGKATLTSDKSSSTAYMELSSLTSEDSAVYYCSLNWDYAYWGQGTLVTVSA
VL: DIVMTQSPATLSVTPGDRVSLSCRASQSISDYLHWYQQKSHESPRLLIKYASQSISGIPSRFSGSGSGSDFTLSINSVEPEDVGVYYCQNGHSFPYTFGGGTKLEIK
notes: Mouse monoclonal antibody from hybridoma; also called 31H9vk; 31H9vh
With B4, the “IC50, IL-23 stimulated IL-17 production” value with recombinant human IL-23 [1] worked out at 960 pM. For the same molecule, the “IC50, IL-23 stimulated IL-17 production” value in assay [2] worked out at 2000 pM. In the assay with recombinant human IL-23 [4], the Kd amounted to 0.0115 nM, the koff was found to be 3.45e-06 s⁻¹ and the kon came to 299000 M⁻¹ s⁻¹.

B5: Chimeric 18E5 (antibody, V domains shown)
VH: B4 VH with S17A, M34I, N59K, S97T, L98S, Y102L, A103D, L110T, V111L, A115S
VL: B4 VL with H34Y, Y50F, S63T, N76D, E81D, Y86F, Y87F, Y96F
For the molecule B5, the “IC50, IL-23 stimulated IL-17 production” value in the assay with recombinant human IL-23 [1] was found to be 31 pM. For the same molecule, the “Average pg/ml IFN-γ +/- Standard Deviation, human PHA-derived T cell blasts with 1 ng/ml IL-12 (no antibody: 532 +/- 51; unstimulated: 87 +/- 7)” value with human IL-12 turned out to be 511 pg/ml IFN-γ.

B6: 9D12 (antibody, V domains shown)
VH: QVQLKESGPVLVAPSQSLSITCTVSGFSLNNFAISWVRQPPGKGLEWLGAIWTGGGTNYNSALKSRLSISKDNSKSQVFLKMNSLQTDDTARYYCVRKDYSYGGAMDYWGQGTSVTVSS
VL: DIALTQSPASLAVSLGQRATISCRASETINFYGTSFMHWYQQKPGQSPKLLIYRASNLESGIPARFSGSGSRTDFTLTINPVEADDVATYYCQQTNEDPYTFGGGTKLEIK
notes: Mouse monoclonal antibody from hybridoma; also called 9D12-Vk; 9D12VH
For the molecule B6, the “IC50, IL-23 stimulated IL-17 production” value in the assay with recombinant human IL-23 [1] came to 59 pM. Further, in assay [2], the “IC50, IL-23 stimulated IL-17 production” value was 281 pM and 138 pM. Further, in the assay with recombinant human IL-23 [4], the dissociation constant Kd is less than 0.001 nM and the koff was less than 1e-06 s⁻¹.
